Assay [1] addresses human EGFR on cells (A431, NCI-H292, NCI-H322, NCI-H441) (human, UniProt P00533 25-1210). Briefly: cell-based or functional assay.
In assay [2] the target is T1, human c-Met on cells (NCI-H441, NCI-H292, U87-MG) (human, UniProt P08581 25-1390). Briefly: cell-based or functional assay.
The target in assay [3] is T2, Recombinant human c-Met Fc chimera (human, UniProt P08581 16-932).
T2 construct: whole c-Met entry named; also called c-Met-Fc fusion protein
Briefly: competition with biotinylated HGF on plate-coated c-Met-Fc.

In assay [4] the target is T3, recombinant c-Met extracellular domain (human, UniProt P08581 16-932).
T3 construct: Construct used for SPR is not described further (may be the Fc chimera, as the protocol captures on anti-human Fc)
Briefly: SPR kinetic analysis as in Example 2. Background: Surface plasmon resonance follows binding to a sensor surface in real time, without labels.

In assay [5] the target is T1, human c-Met on cells (NCI-H441, …). Briefly: NCI-H441 cell binding, anti-His fluorescence. The protocol: Purified FN3 domains (50 μL/well; 0 to 1000 nM) were added to the cells for 1 hour at 4° C. in duplicate plates. Supernatant was removed and cells were washed three times with FACS stain buffer (150 μL/well, BD Biosciences, cat #554657). Cells were incubated with biotinylated-anti HIS antibody (diluted 1:160 in FACS stain buffer, 50 μL/well, R&D Systems, cat # BAM050) for 30 minutes at 4° C. Cells were washed three times with FACS stain buffer (150 μL/well), after which wells were incubated with anti mouse IgG1-Alexa 488 conjugated antibody (diluted 1:80 in FACS stain buffer, 50 μL/well, Life Technologies, cat # A21121) for 30 minutes at 4° C. Cells were washed three times with FACS stain buffer (150 μL/well) and left in FACS stain buffer (50 μL/well). Total fluorescence was determined using an Acumen eX3 reader. Data were plotted as raw fluorescence signal against the logarithm of the FN3 domain molar concentration and fitted to a sigmoidal dose-response curve with variable slope using GraphPad Prism 4 (GraphPad Software) to calculate EC₅₀ values.

Assay [6] has the same target. The assay is described as follows: cell-based or functional assay. This is another data set of the same source.
The target is the same in assay [7]. Briefly: cell-based or functional assay. The source holds these as a separate data set.
The target in assay [8] is EGFR (form used in the assay not stated) (human, UniProt P00533 25-645, limits assumed). Briefly: affinity quoted in text, assay not stated.

Where a chain is given by its changes, count along the chain named.

One may read the IC50 as the concentration that gives 50% inhibition. For orientation: Kd means the free concentration of one partner at which half of the binding sites on the other are occupied at equilibrium, for simple one-to-one binding. What is called EC50 is the midpoint of the concentration-response curve. The low end stands for greater potency, the high end for weaker potency.

B1: ECB147v5-PEG24 (designed binder)
chain: MLPAPKNLVVSEVTEDSARLSWDDPWAFYESFLIQYQESEKVGEAIVLTVPGSERSYDLTGLCPGTEYTVSIYGVHNVYKDTNMRGLPLSAIFTTAPAPAPAPAPLPAPKNLVVSRVTEDSARLSWTAPDAAFDSFWIRYFEFLGSGEAIVLTVPGSERSYDLTGLCPGTEYVVNIMSVKGGSISPPLSAIFTTAPAPAPAPAPLAEAKVLANRELDKYGVSDYYKNLINNAKTVEGVKALLDEILAALP
modifications: PEG24-maleimide on the engineered cysteines
B1: the “IC50 of inhibition of EGF-stimulated EGFR phosphorylation, NCI-H292 cells” value in assay [1] was found to be 0.9 nM. For the same molecule, the “IC50 of inhibition of HGF-stimulated c-Met phosphorylation, NCI-H292 cells” value in assay [2] was 0.4 nM.

B2: ECB147v6-PEG24 (designed binder)
chain: B1 chain with C167K
modifications: PEG24-maleimide on the engineered cysteine
Turning to B2, the “IC50 of inhibition of EGF-stimulated EGFR phosphorylation, NCI-H292 cells” value in assay [1] is 1.4 nM. The “IC50 of inhibition of HGF-stimulated c-Met phosphorylation, NCI-H292 cells” value in assay [2] was determined as 0.4 nM.

B3: ECB147v7-PEG24 (designed binder)
chain: B1 chain with C63K, A98C, C167K, A197C
modifications: PEG24-maleimide on the engineered cysteines
Take B3: the “IC50 of inhibition of EGF-stimulated EGFR phosphorylation, NCI-H292 cells” value in assay [1] was determined as 1.4 nM. The “IC50 of inhibition of HGF-stimulated c-Met phosphorylation, NCI-H292 cells” value in assay [2] was 0.5 nM.

B4: P114AR5P74-A5 (designed binder, not shown: small tags and cut ends)
chain: LPAPKNLVVSRVTEDSARLSWTAPDAAFDSFWIRYDEVVVGGEAIVLTVPGSERSYDLTGLKPGTEYYVNILGVKGGSISVPLSAIFTT
Take B4: in assay [3], the IC50 came to 5.2 nM. Moreover, the Kd in assay [4] was found to be 10.1 nM. The molecule further came in with an EC50 in assay [5] of 18.7 nM. For the same molecule, in assay [6], the “IC50 of inhibition of c-Met phosphorylation, NCI-H292 cells” value worked out at 610 nM. Further, in assay [7], the “Inhibition of proliferation of U87-MG cells IC50” value was found to be 464 nM and the “pMet inhibition in H441 cells IC50” value amounted to 1.08 µM.

B5: P53A1R5-17v2 (designed binder)
chain: LPAPKNLVVSEVTEDSARLSWADPHGFYDSFLIQYQESEKVGEAIVLTVPGSERSYDLTGLKPGTEYTVSIYGVHNVYKDTNMRGLPLSAIFTT
B5 yielded a dissociation constant (Kd) in assay [8] of 1.9 nM.

The values are drawn from patent publication US20210301025A1 (published 2021).
